Assay results reported in patent publication US20210246200A1 (UNIVERSIT T Z RICH, published 2021).

How the values were obtained:
Proleukin® (aldesleukin) [1] = molecular target: T1, Proleukin® (aldesleukin) (human, UniProt P60568 21-153, limits assumed); assay: ELISA, coated Proleukin, HEK293F supernatant 1:2
T1 construct: Variant of human wt IL-2 with C145S (C125S on mature IL-2); also called IL-2 (Proleukin®); human IL-2 (Proleukin)
Procedure: Subsequently, hIL-2 binding efficiency of the antibodies present in the supernatants was determined using ELISA. In brief, ELISA plates (Maxisorp 96-well black microtiter plate) were coated overnight at 4° C. with 100p/well of Proleukin® (5 μg/ml PBS). ELISA plates were washed once with TBST (1×TBS/0.05% Tween 20) using a plate-washer (BioTek). […] After removal of the blocking buffer, plates were washed once with TBST using the plate washer. Supernatants were diluted 1:2 in blocking buffer and 50 μl transferred to the designated well of the ELISA plate. Each sample was present on three ELISA plates. The three plates were incubated at RT under gentle agitation. […] The other two plates were washed either every hour three times with TBST for 4 hours or washed every hour three times for 12 hours before adding the detection antibody. […] Luminescence signal was measured after 5 minutes incubation in the dark. […] All ELISA values are mean values based on two measurements.

Proleukin® (aldesleukin) [2] = molecular target: T1, Proleukin® (aldesleukin); assay: ELISA, coated Proleukin, serially diluted supernatant

T1 sequence (P60568 other isoform, or with tags, fused parts or gaps limits assumed): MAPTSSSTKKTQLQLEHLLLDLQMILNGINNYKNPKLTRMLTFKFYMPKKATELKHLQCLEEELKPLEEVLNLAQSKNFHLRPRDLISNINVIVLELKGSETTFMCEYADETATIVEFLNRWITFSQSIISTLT

| Binder | ELISA value (Normal ELISA) (Proleukin® (aldesleukin) [1]) | ELISA value (wash 3x every hour for 4 HRS) (Proleukin® (aldesleukin) [1]) | ELISA value (wash 3x every hour for 12 HRS) (Proleukin® (aldesleukin) [1]) | EC50 (Proleukin® (aldesleukin) [2]) |
| --- | --- | --- | --- | --- |
| Antibody No: 18 (antibody, human IgG1, kappa, N297A, V domains shown, VK A50S; HEK293F supernatant) VH: EVQLVQSGAEVKKPGESLKISCKGSGYAFTNYLIEWVRQMPGKGLEWMGVINPGSGGTYYNEKFKGQVTISADKSISTAYLQWSSLKASDTAMYYCARWRGEGYYAYYDVWGQGTTVTVSS VL: AIRLTQSPSSFSASTGDRVTITCKASQSVDYQGDSYMNWYQQKPGKAPKLLIYSASNLESGVPSRFSGSGSGTDFTLTISSLQSEDFATYYCQQSNEDPYTFGGGTKVEIKR | 8060 luminescence signal | 7320 luminescence signal | 3660 luminescence signal | 0.54 nM |
| Antibody No: 19 (antibody, human IgG1, kappa, N297A, V domains shown, VK A50T; HEK293F supernatant) VH: EVQLVQSGAEVKKPGESLKISCKGSGYAFTNYLIEWVRQMPGKGLEWMGVINPGSGGTYYNEKFKGQVTISADKSISTAYLQWSSLKASDTAMYYCARWRGEGYYAYYDVWGQGTTVTVSS VL: AIRLTQSPSSFSASTGDRVTITCKASQSVDYQGDSYMNWYQQKPGKAPKLLIYTASNLESGVPSRFSGSGSGTDFTLTISSLQSEDFATYYCQQSNEDPYTFGGGTKVEIKR | 5400 luminescence signal | 4880 luminescence signal | 2210 luminescence signal | 0.5 nM |
| Antibody No: 21 (antibody, human IgG1, kappa, N297A, V domains shown, VK WT; HEK293F supernatant) VH: EVQLVQSGAEVKKPGESLKISCKGSGYAFSNYLIEWVRQMPGKGLEWMGVINPGSGGTNYNEKFKGQVTISADKSISTAYLQWSSLKASDTAMYYCARWRGEGYYAYYDVWGQGTTVTVSS VL: AIRLTQSPSSFSASTGDRVTITCKASQSVDYQGDSYMNWYQQKPGKAPKLLIYAASNLESGVPSRFSGSGSGTDFTLTISSLQSEDFATYYCQQSNEDPYTFGGGTKVEIKR | 2200 luminescence signal | 1840 luminescence signal | 892 luminescence signal | 0.65 nM |
| Antibody No: 22 (antibody, human IgG1, kappa, N297A, V domains shown, VK M33L; HEK293F supernatant) VH: EVQLVQSGAEVKKPGESLKISCKGSGYAFSNYLIEWVRQMPGKGLEWMGVINPGSGGTNYNEKFKGQVTISADKSISTAYLQWSSLKASDTAMYYCARWRGEGYYAYYDVWGQGTTVTVSS VL: AIRLTQSPSSFSASTGDRVTITCKASQSVDYQGDSYLNWYQQKPGKAPKLLIYAASNLESGVPSRFSGSGSGTDFTLTISSLQSEDFATYYCQQSNEDPYTFGGGTKVEIKR | 3970 luminescence signal | 3190 luminescence signal | 1200 luminescence signal | 0.43 nM |
| Antibody No: 23 (antibody, human IgG1, kappa, N297A, V domains shown, VK A50S; HEK293F supernatant) VH: EVQLVQSGAEVKKPGESLKISCKGSGYAFSNYLIEWVRQMPGKGLEWMGVINPGSGGTNYNEKFKGQVTISADKSISTAYLQWSSLKASDTAMYYCARWRGEGYYAYYDVWGQGTTVTVSS VL: AIRLTQSPSSFSASTGDRVTITCKASQSVDYQGDSYMNWYQQKPGKAPKLLIYSASNLESGVPSRFSGSGSGTDFTLTISSLQSEDFATYYCQQSNEDPYTFGGGTKVEIKR | 6170 luminescence signal | 4640 luminescence signal | 1250 luminescence signal | 0.26 nM |
| Antibody No: 24 (antibody, human IgG1, kappa, N297A, V domains shown, VK A50T; HEK293F supernatant) VH: EVQLVQSGAEVKKPGESLKISCKGSGYAFSNYLIEWVRQMPGKGLEWMGVINPGSGGTNYNEKFKGQVTISADKSISTAYLQWSSLKASDTAMYYCARWRGEGYYAYYDVWGQGTTVTVSS VL: AIRLTQSPSSFSASTGDRVTITCKASQSVDYQGDSYMNWYQQKPGKAPKLLIYTASNLESGVPSRFSGSGSGTDFTLTISSLQSEDFATYYCQQSNEDPYTFGGGTKVEIKR | 2770 luminescence signal | 1880 luminescence signal | 674 luminescence signal | 0.59 nM |
| Antibody No: 25 (antibody, human IgG1, kappa, N297A, V domains shown, VK M33L + A50S; HEK293F supernatant) VH: EVQLVQSGAEVKKPGESLKISCKGSGYAFSNYLIEWVRQMPGKGLEWMGVINPGSGGTNYNEKFKGQVTISADKSISTAYLQWSSLKASDTAMYYCARWRGEGYYAYYDVWGQGTTVTVSS VL: AIRLTQSPSSFSASTGDRVTITCKASQSVDYQGDSYLNWYQQKPGKAPKLLIYSASNLESGVPSRFSGSGSGTDFTLTISSLQSEDFATYYCQQSNEDPYTFGGGTKVEIKR | 3570 luminescence signal | 3050 luminescence signal | 1080 luminescence signal | 0.42 nM |
| Antibody No: 26 (antibody, human IgG1, kappa, N297A, V domains shown, VH N58Y + T30S; VK WT; HEK293F supernatant; 108929 is kept apart) VH: EVQLVQSGAEVKKPGESLKISCKGSGYAFSNYLIEWVRQMPGKGLEWMGVINPGSGGTYYNEKFKGQVTISADKSISTAYLQWSSLKASDTAMYYCARWRGEGYYAYFDVWGQGTTVTVSS VL: AIRLTQSPSSFSASTGDRVTITCKASQSVDYQGDSYMNWYQQKPGKAPKLLIYAASNLESGVPSRFSGSGSGTDFTLTISSLQSEDFATYYCQQSNEDPYTFGGGTKVEIKR | 4030 luminescence signal | 4210 luminescence signal | 1800 luminescence signal | 0.49 nM |
